From patent WO2018095932A1 (dated 2018)
Each block holds one binder with its values, some of them ahead of it.

How the values were obtained:
FGFR1 of NCI-H520 cells = FGFR1 of NCI-H520 cells (UniProt P11362 22-822); test: cell-based or functional assay
[1] = target: T1, human FGFR1b-IIIb extracellular domain with a His tag (human); test: ELISA, IgG1 format
T1 construct: also called huFGFR1b-IIIb; FGFR1-IIIb
T1 chain: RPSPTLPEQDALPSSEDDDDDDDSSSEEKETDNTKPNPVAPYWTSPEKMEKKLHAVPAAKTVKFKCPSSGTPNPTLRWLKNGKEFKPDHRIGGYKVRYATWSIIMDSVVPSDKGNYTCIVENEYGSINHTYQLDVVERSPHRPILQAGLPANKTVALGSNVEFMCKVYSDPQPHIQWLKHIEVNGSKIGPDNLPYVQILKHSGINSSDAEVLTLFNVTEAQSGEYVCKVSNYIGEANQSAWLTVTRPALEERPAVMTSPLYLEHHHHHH

[2] = target: T2, human FGFR1b-IIIc extracellular domain with a His tag (human, UniProt P11362 22-376); test: ELISA, IgG1 format
T2 construct: also called huFGFR1b-IIIc; FGFR1-IIIc
T2 sequence: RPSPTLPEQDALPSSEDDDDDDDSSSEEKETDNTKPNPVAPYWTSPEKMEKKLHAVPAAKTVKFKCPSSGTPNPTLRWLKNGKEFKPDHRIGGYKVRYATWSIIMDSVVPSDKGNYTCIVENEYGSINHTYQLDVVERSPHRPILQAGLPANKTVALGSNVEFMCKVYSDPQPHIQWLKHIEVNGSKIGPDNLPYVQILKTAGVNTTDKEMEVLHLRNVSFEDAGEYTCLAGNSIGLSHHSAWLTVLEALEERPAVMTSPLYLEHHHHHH

[3] = target: T3, human FGFR1 (FGFR1b-IIIb or FGFR1b-IIIc, not stated which) (human, UniProt P11362 22-376); test: ELISA on coated human FGFR1b (IIIb or IIIc, not stated which), IgG1 format
T3 chain: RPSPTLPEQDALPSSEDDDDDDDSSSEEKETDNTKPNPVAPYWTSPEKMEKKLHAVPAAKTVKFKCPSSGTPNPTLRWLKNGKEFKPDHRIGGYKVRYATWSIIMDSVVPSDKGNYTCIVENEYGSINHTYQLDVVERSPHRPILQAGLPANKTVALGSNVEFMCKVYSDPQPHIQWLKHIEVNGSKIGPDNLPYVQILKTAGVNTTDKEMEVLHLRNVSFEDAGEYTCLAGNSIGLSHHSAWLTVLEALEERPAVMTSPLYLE

[4] = target: T3, human FGFR1 (FGFR1b-IIIb or …); test: ELISA on coated human FGFR1b (IIIb or IIIc, not stated which)
[5] = target: T1, human FGFR1b-IIIb extracellular domain …; test: SPR (BIAcore 4000), antibody captured by anti-human Fc, His-tagged FGFR1 injected
[6] = target: T2, human FGFR1b-IIIc extracellular domain …; test: as above
[7] = target: T1, human FGFR1b-IIIb extracellular domain …; test: ELISA
Human FGFR1 D2-His6 = target: T4, Human FGFR1 D2-His6 (human, UniProt P11362 22-254); test: ELISA
T4 construct: also called D2 domain; wild-type D2
T4 sequence: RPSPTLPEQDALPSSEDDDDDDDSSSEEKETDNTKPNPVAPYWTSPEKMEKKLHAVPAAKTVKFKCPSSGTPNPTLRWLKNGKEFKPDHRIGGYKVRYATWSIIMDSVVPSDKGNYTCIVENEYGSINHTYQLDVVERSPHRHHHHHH

FGFR1 of NCI-H520 cells, sequence (P11362 22-822): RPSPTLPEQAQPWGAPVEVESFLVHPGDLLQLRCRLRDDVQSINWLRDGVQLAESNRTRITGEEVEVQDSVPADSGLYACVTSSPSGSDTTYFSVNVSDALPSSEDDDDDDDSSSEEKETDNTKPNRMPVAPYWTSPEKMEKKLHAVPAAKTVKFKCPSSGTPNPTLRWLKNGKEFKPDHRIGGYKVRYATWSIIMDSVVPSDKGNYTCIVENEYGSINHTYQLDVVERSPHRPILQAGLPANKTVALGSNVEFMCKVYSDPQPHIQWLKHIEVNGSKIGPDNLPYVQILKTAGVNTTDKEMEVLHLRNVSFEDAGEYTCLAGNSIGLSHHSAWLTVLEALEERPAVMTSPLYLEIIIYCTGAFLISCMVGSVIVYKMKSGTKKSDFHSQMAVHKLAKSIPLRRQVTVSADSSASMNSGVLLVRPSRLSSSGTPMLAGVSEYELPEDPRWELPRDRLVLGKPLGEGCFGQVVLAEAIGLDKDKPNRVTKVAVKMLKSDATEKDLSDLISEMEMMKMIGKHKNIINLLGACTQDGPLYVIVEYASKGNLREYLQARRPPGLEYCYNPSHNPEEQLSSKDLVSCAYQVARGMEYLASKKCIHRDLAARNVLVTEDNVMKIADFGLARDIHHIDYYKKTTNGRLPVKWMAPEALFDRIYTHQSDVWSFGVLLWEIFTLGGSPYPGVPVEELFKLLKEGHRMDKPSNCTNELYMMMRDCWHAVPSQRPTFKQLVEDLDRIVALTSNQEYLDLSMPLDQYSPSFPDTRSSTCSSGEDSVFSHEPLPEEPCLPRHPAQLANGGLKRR

B2: mAb #A02 in the IgG1 format (antibody, V domains shown)
VH: QVQLQESGPGLVKPSGTLSLTCAVSGGSISSNNWWSWVRQPPGKGLEWIGEIYHSGSTSYNPSLKSRVTISVDKSKNQFSLKLSSVTAADTAVYYCARATDWFDLWGQGTLVTVSS
VL: SYVLTQPPSVSVAPGQTARITCGGNNIGSESVHWYQQKPGQAPVLVVYDDSDRPSGIPERFSGSNSGNTATLTISRVEAGDEADYYCQVWDSTSDHRVFGGGTKLTVL
binding result [1]: binds | binding result [2]: binds

B3: #A08 lead IgG1 antibody (bivalent) (antibody, V domains shown)
VH: EVQLQESGPGLVKPSGTLSLTCAVSGGSISSNNWWSWVRQPPGKGLEWIGEIYHSGSTSYNPSLKSRVTISVDKSKNQFSLKLSSVTAADTAVYYCARGTDWFDPWGQGTLVTVSS
VL: SYVLTQPPSVSVAPGQTARITCGGNNIGSESVHWYQQKPGQAPVLVVYDDSDRPSGIPERFSGSNSGNTATLTISRVEAGDEADYYCQVWDSTSDHRVFGGGTKLTVLG
notes: also called lgG1 (bivalent) format of #A08; #A08 lead-lgG1 m3 antibody
EC50 [3]: 0.008 nM

B6: mAb #C01 in the IgG1 format (antibody, V domains shown)
VH: QVQLQESGPGLVKPSGTLSLTCAVSGGSISSNNWWSWVRQPPGKGLEWIGEIYHSGSTSYNPSLKSRVTISVDKSKNQFSLKLSSVTAADTAVYYCARATDWFDAWGQGTLVTVSS
VL: SYVLTQPPSVSVAPGQTARITCGGNNIGSESVHWYQQKPGQAPVLVVYDDSDRPSGIPERFSGSNSGNTATLTISRVEAGDEADYYCQVWDSTSDHRVFGGGTKLTVL
binding result [1]: binds | binding result [2]: binds

B7: mAb #A05 (#A05 hit), anti-FGFR1 antibody (antibody, IgG1, V domains shown)
VH: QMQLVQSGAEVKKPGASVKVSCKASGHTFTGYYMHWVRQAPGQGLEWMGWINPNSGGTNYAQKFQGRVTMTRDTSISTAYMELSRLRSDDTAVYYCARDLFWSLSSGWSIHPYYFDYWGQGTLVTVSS
VL: QSALTQPASVSGSPGQSITISCTGTSSDVGSYNLVSWYQQHPGKAPKLMIYGGSKRPSGVPDRFSGSKSDTSASLTISGLQAEDEADYYCCSYTYNGDVFGTGTKVTVL
notes: also called imAb #A05
binding result [7]: binds | binding result (Human FGFR1 D2-His6): no binding | IC50 of inhibition of FGF1-induced pFGFR1 in NCI-H520 cells (FGFR1 of NCI-H520 cells): 1 nM | IC50 of inhibition of FGF2-induced pFGFR1 in NCI-H520 cells (FGFR1 of NCI-H520 cells): 1 nM | Kd [6]: 0.01 nM

Continued, values first:

IC50 of inhibition of FGF1-induced pFGFR1 in NCI-H520 cells (FGFR1 of NCI-H520 cells): 70 nM | IC50 of inhibition of FGF2-induced pFGFR1 in NCI-H520 cells (FGFR1 of NCI-H520 cells): 6 nM | IC50 of inhibition of pFGFR1 in NCI-H520 cells in the absence of ligand (FGFR1 of NCI-H520 cells): 20 nM | fold change of pFGFR1 inhibition IC50, monovalent against bivalent format (FGFR1 of NCI-H520 cells): ~10 fold
B1: monovalent SEEDbody #A08 (antibody)
heavy: EVQLQESGPGLVKPSGTLSLTCAVSGGSISSNNWWSWVRQPPGKGLEWIGEIYHSGSTSYNPSLKSRVTISVDKSKNQFSLKLSSVTAADTAVYYCARGTDWFDPWGQGTLVTVSSASTKGPSVFPLAPSSKSTSGGTAALGCLVKDYFPEPVTVSWNSGALTSGVHTFPAVLQSSGLYSLSSVVTVPSSSLGTQTYICNVNHKPSNTKVDKRVEPKSCDKTHTCPPCPAPELLGGPSVFLFPPKPKDTLMISRTPEVTCVVVDVSHEDPEVKFNWYVDGVEVHNAKTKPREEQYNSTYRVVSVLTVLHQDWLNGKEYKCKVSNKALPAPIEKTISKAKGQPFRPEVHLLPPSREEMTKNQVSLTCLARGFYPKDIAVEWESNGQPENNYKTTPSRQEPSQGTTTFAVTSKLTVDKSRWQQGNVFSCSVMHEALHNHYTQKTISLSPG
chain: EPKSSDKTHTCPPCPAPELLGGPSVFLFPPKPKDTLMISRTPEVTCVVVDVSHEDPEVKFNWYVDGVEVHNAKTKPREEQYNSTYRVVSVLTVLHQDWLNGKEYKCKVSNKALPAPIEKTISKAKGQPREPQVYTLPPPSEELALNELVTLTCLVKGFYPSDIAVEWLQGSQELPREKYLTWAPVLDSDGSFFLYSILRVAAEDWKKGDTFSCSVMHEALHNHYTQKSLDRSPG
light: SYVLTQPPSVSVAPGQTARITCGGNNIGSESVHWYQQKPGQAPVLVVYDDSDRPSGIPERFSGSNSGNTATLTISRVEAGDEADYYCQVWDSTSDHRVFGGGTKLTVLGQPKAAPSVTLFPPSSEELQANKATLVCLISDFYPGAVTVAWKADSSPVKAGVETTTPSKQSNNKYAASSYLSLTPEQWKSHKSYSCQVTHEGSTVEKTVAPTECS

EC50 [4]: 0.015 nM
B4: mAb #D01 in the IgG1 format (antibody, V domains shown)
VH: QVQLQESGPGLVKPSGTLSLTCAVSGGSISSNNWWSWVRQPPGKGLEWIGEIYHSGSTSYNPSLKSRVTISVDKSKNQFSLKLSSVTAADTAVYYCARATDWFDHWGQGTLVTVSS
VL: SYVLTQPPSVSVAPGQTARITCGGNNIGSESVHWYQQKPGQAPVLVVYDDSDRPSGIPERFSGSNSGNTATLTISRVEAGDEADYYCQVWDSTSDHRVFGGGTKLTVLG

IC50 of inhibition of FGF1-induced pFGFR1 in NCI-H520 cells (FGFR1 of NCI-H520 cells): 4 nM | IC50 of inhibition of FGF2-induced pFGFR1 in NCI-H520 cells (FGFR1 of NCI-H520 cells): 0.2 nM | Kd [5]: 0.01 nM | Kd [6]: 0.017 nM
B5: mAb #A08 (#A08 hit), anti-FGFR1 antibody (antibody, V domains shown)
VH: EVQLQESGPGLVKPSGTLSLTCAVSGGSISSNNWWSWVRQPPGKGLEWIGEIYHSGSTSYNPSLKSRVTISVDKSKNQFSLKLNSVTAADTAVYYCARGTDWFDPWGQGTLVTVSS
VL: QAVLTQPPSVSVAPGQTARITCGGNNIGSESVHWYQQKPGQAPVLVVYDDSDRPSGIPERFSGSNSGNTATLTISRVEAGDEADYYCQVWDSTSDHRVFGGGTKLTVL
notes: also called imAb #A08; clone #A08
